Each block holds one molecule with its values, some of them ahead of it.
B1: His6-CyaC (enzyme, Sinorhizobium meliloti, UniProt Q92MZ6 1-557, looked up)
chain: MTILSASTRKKMHLISGAVLGVFVLLHFSNHALGLVSIDAMETGRRIFTSVWQSIPGTALLYGALLLHFLMALDSLYRRQTFRMPVGEALKIIFGLSLPFLLVPHVVAARVEPLLSGVYPDYPAILRTLWSSSFNTSRQSLALIVVWGHACLGAWFWMRGRAWFPKYETLLYTVALLVPIFALLGFVNGARSLERDYAEHGGYGDRAYSSQAPRVDPNLLDKIRLAFYGGFASLIGGTLVLRALPARGRIRIRYPDGRVAAVSLGFSVLEASRAAGIPHVSVCGGRGRCSTCRVRITQGLEGQPPPEAAELATLTRIGAPENVRLACQFRPVHNVSVVPILDTDSLGIKTQLARQNAGGRERRVAVLFCDLRDFTRIAEHRLPYDTVFLLNRYFEVVGEAVEGSGGVVDKFIGDGALAIFGLKTPLPEACRQALSAAARLSQGIRALNQTFEGELEQPLRLAIGLHAGPAIIGEMGYGQATSLTVVGDTINTASRLEGLAKEHDVELAVSAELVERAGLSFEGHRRLEIGLRGRKATLETWIIGDAAQLSLSLPMQG
notes: His6-CyaC printed as 64.0 kDa; Solubilised in detergent; also called SMc01818 protein; source: E. coli C43(DE3) with pMW3043, extracted from membranes with 1% n-dodecyl-β-D-maltoside, purified (Ni2+-NTA); not shown: His6, N-terminal, kept
B2: CycR-Strep (natural protein, Sinorhizobium meliloti, UniProt Q92MZ5 1-213, looked up)
chain: MVLPRAARTQRRTRIQEEKEEQILEAALEVFSANGFRGSTIDQIADVAGMSKPNLLYYFRTKEAMHRALIDRVLDTWLDPLRAFDAEGNPVAEIRSYIRRKLEMARDFPRESRLFANEVLQGAPRIVDELKGPLKQLVDEKAEVIRSWAKAGKIAKCDPYHLIFAIWSTTQHYADFDVQVRAVLGQENAGEGRFEDAARFLERLFVDGLQVRE
notes: TetR-like transcriptional regulator CycR (TR01819, product of gene smc01819) of Sinorhizobium meliloti; CycR-Strep printed as 28.3 kDa; The purification is told in words only for Clr-Strep; also called Strep-CycR; TR01819; source: E. coli BL21(DE3) with pMW3065, purified; not shown: Strep, C-terminal, kept

What was measured:
[1] = biological target: CyaC(K410A T484A), fused to the T18 or T25 fragment of Bordetella pertussis adenylate cyclase (Sinorhizobium meliloti); test: two-hybrid; bacterial adenylate cyclase two-hybrid (BACTH) in E. coli BTH101; T18 and T25 fusions co-expressed from plasmids; grown anaerobically in LB with 20 mM DMSO; β-galactosidase read-out, percent of the Zip-T18/Zip-T25 positive control
[2] = biological target: B2; test: SPR; Biacore T200, CM5 chip with StrepTactin; about 200 RU CycR-Strep captured; His6-CyaC injected at 10-5,000 nM; HBS-EP+ (10 mM HEPES pH 7.4, 150 mM NaCl, 3 mM EDTA, 0.05% P20), 25 °C; without cAMP; conditions: both partners purified
[3] = biological target: B1; test: as above; conditions: both partners purified
[4] = biological target: B1; test: SPR; Biacore T200, CM5 chip with StrepTactin; about 200 RU CycR-Strep captured; His6-CyaC injected at 10-5,000 nM; HBS-EP+ (10 mM HEPES pH 7.4, 150 mM NaCl, 3 mM EDTA, 0.05% P20), 25 °C; with 500 µM cAMP; conditions: both partners purified

BACTH β-galactosidase activity, percent of the Zip positive control [1]: 108%
Molecule: Clr (Smc02175), fused to the T18 or T25 fragment of Bordetella pertussis adenylate cyclase (natural protein)

Molecule: B1
stoichiometry N [2]: 1

Molecule: B2
Kd [3]: 160 nM | Kd [4]: 114 nM

From PMC10463352, “A signaling complex of adenylate cyclase CyaC of Sinorhizobium meliloti with cAMP and the transcriptional regulators Clr and CycR” (BMC Microbiology, 2023)
